From US20100247549A1 (US Dept. of Health and Human Services, published 2010) come the findings set out here.

Assay [1] addresses Envelope glycoprotein (E) of parental DENV-4 (C6/36) (dengue virus type 4, UniProt P09866 280-774).
A further assay concerns the target purified human C1q (human, UniProt P02745 23-245; P02746 28-253; P02747 29-245). Description: ELISA, IgG titrated against purified human C1q.
The next assay deals with human Fcγ R I (human, UniProt P12314 16-288). Description: ELISA, IgG titrated against human Fcγ R I.
Sequence of human Fcγ R I (P12314 16-288 limits assumed): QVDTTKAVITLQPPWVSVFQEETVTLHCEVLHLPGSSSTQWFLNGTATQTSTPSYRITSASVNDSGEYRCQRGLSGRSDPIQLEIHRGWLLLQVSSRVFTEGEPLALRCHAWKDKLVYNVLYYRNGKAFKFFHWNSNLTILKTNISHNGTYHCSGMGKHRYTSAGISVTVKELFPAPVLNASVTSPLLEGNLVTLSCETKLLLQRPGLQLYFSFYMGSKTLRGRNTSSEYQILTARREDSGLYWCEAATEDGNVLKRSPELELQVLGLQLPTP
The next assay has as its target human Fcγ R IIIB (human, UniProt O75015 17-200). Description: ELISA, IgG titrated against human Fcγ R IIIB.
In a further assay the target is T1, human Fcγ R IIB (human, UniProt P31994 46-217).
T1 sequence: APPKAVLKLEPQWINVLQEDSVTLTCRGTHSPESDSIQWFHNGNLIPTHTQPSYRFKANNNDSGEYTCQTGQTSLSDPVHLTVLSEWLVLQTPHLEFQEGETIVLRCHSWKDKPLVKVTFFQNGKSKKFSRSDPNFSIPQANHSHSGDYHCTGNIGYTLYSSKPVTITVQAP
Put plainly: ELISA, IgG titrated against human Fcγ R IIB.

Sequence of purified human C1q (P02745 23-245 limits assumed, chain 1 of 3): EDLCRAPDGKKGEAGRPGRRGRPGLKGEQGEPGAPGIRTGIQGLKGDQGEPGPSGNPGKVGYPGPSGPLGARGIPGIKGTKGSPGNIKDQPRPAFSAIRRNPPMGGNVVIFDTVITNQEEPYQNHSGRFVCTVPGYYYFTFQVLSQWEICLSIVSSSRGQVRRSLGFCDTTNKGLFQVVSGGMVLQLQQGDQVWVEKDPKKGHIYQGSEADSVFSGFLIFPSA
Sequence of purified human C1q (P02746 28-253 limits assumed, chain 2 of 3): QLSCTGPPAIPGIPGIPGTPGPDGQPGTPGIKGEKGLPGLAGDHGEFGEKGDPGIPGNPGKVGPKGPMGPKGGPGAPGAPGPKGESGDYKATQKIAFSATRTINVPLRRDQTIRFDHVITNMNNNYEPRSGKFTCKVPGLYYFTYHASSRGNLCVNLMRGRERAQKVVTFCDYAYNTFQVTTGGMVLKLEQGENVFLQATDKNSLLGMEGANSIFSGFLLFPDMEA
Sequence of purified human C1q (P02747 29-245 limits assumed, chain 3 of 3): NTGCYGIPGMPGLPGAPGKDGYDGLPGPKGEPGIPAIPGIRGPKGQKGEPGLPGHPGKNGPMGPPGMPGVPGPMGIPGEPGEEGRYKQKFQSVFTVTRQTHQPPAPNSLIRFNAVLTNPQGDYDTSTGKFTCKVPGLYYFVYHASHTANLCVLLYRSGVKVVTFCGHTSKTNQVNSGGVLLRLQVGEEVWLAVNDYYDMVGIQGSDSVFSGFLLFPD
Sequence of Envelope glycoprotein (E) of parental DENV-4 (C6/36) (P09866 280-774 limits assumed): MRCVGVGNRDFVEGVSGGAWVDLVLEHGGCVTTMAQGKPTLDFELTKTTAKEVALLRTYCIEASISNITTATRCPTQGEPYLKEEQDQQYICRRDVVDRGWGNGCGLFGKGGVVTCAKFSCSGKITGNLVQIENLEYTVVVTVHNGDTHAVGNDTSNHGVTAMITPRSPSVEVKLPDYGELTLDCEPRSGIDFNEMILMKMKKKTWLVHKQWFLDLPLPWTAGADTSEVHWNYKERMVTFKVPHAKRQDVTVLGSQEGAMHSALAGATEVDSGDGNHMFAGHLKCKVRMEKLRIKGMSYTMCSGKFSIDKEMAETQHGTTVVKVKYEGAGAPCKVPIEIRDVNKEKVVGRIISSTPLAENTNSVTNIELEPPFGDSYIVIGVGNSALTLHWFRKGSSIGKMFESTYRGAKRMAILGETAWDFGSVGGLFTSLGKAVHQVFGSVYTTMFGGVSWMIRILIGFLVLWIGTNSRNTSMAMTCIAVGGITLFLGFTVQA
Sequence of human Fcγ R IIIB (O75015 17-200 limits assumed): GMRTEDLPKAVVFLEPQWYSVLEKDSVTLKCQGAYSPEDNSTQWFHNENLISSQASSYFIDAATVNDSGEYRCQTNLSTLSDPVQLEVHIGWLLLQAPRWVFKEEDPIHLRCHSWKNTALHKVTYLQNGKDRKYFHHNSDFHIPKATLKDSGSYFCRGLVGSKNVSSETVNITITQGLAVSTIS

B1: Humanized IgG 5H2 ΔD (IgG1 5H2 with a 9-amino-acid deletion, positions 231-239, at the N-terminus of the CH2 domain) (antibody)
heavy: EVQLLESGPGLVKPSETLSLTCTVSGGSISDFYWSWLRQSPGKGLEWIGYAHSRVSAYYNPSLKSRVTISVDTSKNQLSLRLSAVTAADTALYYCARQGTGTTGVSEDFFDLWGQGTKVIVSLASTKGPSVFPLAPSSKSTSGGTAALGCLVKDYFPEPVTVSWNSGALTSGVHTFPAVLQSSGLYSLSSVVTVPSSSLGTQTYICNVDHKPSNTKVDKKVEPKSCDKTHTCPPCPVFLFPPKPKDTLMISRTPEVTCVVVDVSHEDPEVKFNWYVDGVEVHNAKTKPREEQYNSTYRVVSVLTVLHQDWLNGKEYKCKVSNKALPAPIEKTISKAKGQPREPQVYTLPPSRDELTKNQVSLTCLVKGFYPSDIAVEWESNGQPENNYKTTPPVLDSDGSFFLYSKLTVDKSRWQQGNVFSCSVMHEALHNHYTQKSLSLSPGK
light: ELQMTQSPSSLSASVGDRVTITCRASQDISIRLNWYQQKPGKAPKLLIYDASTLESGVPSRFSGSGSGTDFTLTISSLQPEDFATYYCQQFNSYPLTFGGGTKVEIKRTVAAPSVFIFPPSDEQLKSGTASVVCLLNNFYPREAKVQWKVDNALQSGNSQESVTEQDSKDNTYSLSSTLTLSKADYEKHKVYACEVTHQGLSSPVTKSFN
notes: also called IgG1 5H2 ΔD; IgG 5H2D; copies: 2 + 2
For the molecule B1, the Kd in assay [1] amounted to 0.14 nM. In addition, in the assay with purified human C1q, the binding result is listed as “no binding”.

B2: Chimpanzee antibody Fab 5H2 (Fab, V domains shown)
VH: EVQLLESGPGLVKPSETLSLTCTVSGGSISDFYWSWLRQSPGKGLEWIGYAHSRVSAYYNPSLKSRVTISVDTSKNQLSLRLSAVTAADTALYYCARQGTGTTGVSEDPFDLWGQGTKVIVSL
VL: ELQMTQSPSSLSASVGDRVTITCRASQDISIRLNWYQQKPGKAPKLLIYDASTLESGVPSRFSGSGSGTDFTLTISSLQPEDFATYYCQQFNSYPLTFGGGTKVEIKR
As for B2, the Kd in assay [1] was found to be 0.21 nM.

B3: Humanized IgG 1A5 (IgG1), full-length (antibody)
heavy: not shown
light: ELQMTQSPSSVSASVGDTVTIACRASQSITNYLSWYQQKPGKAPKLLIYHASTLQSGIPSRFSGSGSGTDFTLTISSLQPDDFATYYCHYGYGTHTFGQGTKLEIKRTVAAPSVFIFPPSDEQLKSGTASVVCLLNNFYPREAKVQWKVDNALQSGNSQESVTEQDSKDNTYSLSSTLTLSKADYEKHKVYACEVTHQGLSSPVTKSFN
notes: also called IgG 1A5 WT; MAb IgG 1A5; copies: 2 + 2
For B3, the “EC50 (read off the curve)” value with human Fcγ R I is about 0.7 µg/mL. Moreover, the binding result with human Fcγ R IIIB, with human Fcγ R IIB and with purified human C1q was “binds” in each case.

B4: IgG 1A5 ΔA (replacement amino acids at 327, 330 and 331 from the Fc of IgG4) (antibody)
chain 1: EVQLLESGGGLVQPGGSRRLSCAASGFTISDNVMHWVRQAPGKGLEWVALIYSADTTHYADSVKGRFTISRDNSKNTLYLQMDSLRPEDTAVYYCAREYCTGDTCFAHFDYWGQGTLVSVSSASTKGPSVFPLAPSSKSTSGGTAALGCLVKDYFPEPVTVSWNSGALTSGVHTFPAVLQSSGLYSLSSVVTVPSSSLGTQTYICNVDHKPSNTKVDKKVEPKSCDKTHTCPPCPAPELLGGPSVFLFPPKPKDTLMISRTPEVTCVVVDVSHEDPEVKFNWYVDGVEVHNAKTKPREEQYNSTYRVVSVLTVLHQDWLNGKEYKCKVSNKGLPSSIEKTISKAKGQPREPQVYTLPPSRDELTKNQVSLTCLVKGFYPSDIAVEWESNGQPENNYKTTPPVLDSDGSFFLYSKLTVDKSRWQQGNVFSCSVMHEALHNHYTQKSLSLSPGK
chain 2: B3 light
As for B4, in the assay with human Fcγ R I, the “EC50 (read off the curve)” value is about 3 µg/mL.

B5: IgG 1A5 ΔD (IgG 1A5 with the 9-amino-acid deletion, amino acids 231-239, in the CH2 domain) (antibody)
heavy: EVQLLESGGGLVQPGGSRRLSCAASGFTISDNVMHWVRQAPGKGLEWVALIYSADTTHYADSVKGRFTISRDNSKNTLYLQMDSLRPEDTAVYYCAREYCTGDTCFAHFDYWGQGTLVSVSSASTKGPSVFPLAPSSKSTSGGTAALGCLVKDYFPEPVTVSWNSGALTSGVHTFPAVLQSSGLYSLSSVVTVPSSSLGTQTYICNVDHKPSNTKVDKKVEPKSCDKTHTCPPCPVFLFPPKPKDTLMISRTPEVTCVVVDVSHEDPEVKFNWYVDGVEVHNAKTKPREEQYNSTYRVVSVLTVLHQDWLNGKEYKCKVSNKALPAPIEKTISKAKGQPREPQVYTLPPSRDELTKNQVSLTCLVKGFYPSDIAVEWESNGQPENNYKTTPPVLDSDGSFFLYSKLTVDKSRWQQGNVFSCSVMHEALHNHYTQKSLSLSPGK
light: B3 light
notes: also called variant ΔD; copies: 2 + 2
Take B5: the binding result in the assay with purified human C1q is “no binding”.
